Measurements taken from the supplement of paper PMC10598134.
± gives the standard deviation.

Experiment: collision cross section of modified peptide (TIMS, N2, iRT-aligned); higher = larger / more extended gas-phase ion
Summary of the method: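 Values are averages of 1–3 technical replicates of the most abundant feature for each charge state. Collision cross section was obtained from the Mason-Schamp equation after 1/K0 calibration with three reference ions and run-wise alignment to the median iRT peptide deviation. Synthetic peptide pools (iRT standard spiked 1:40) were separated on a 120-min nanoflow C18 gradient at 60 °C, analysed on a timsTOF Pro/HT (dda-PASEF, nitrogen, ~2.4 mbar) and identified with MaxQuant.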

[1] = charge state: 2, modification: hydroxyisobutyryl
[2] = charge state: 2, modification: HexNAc (ST)
[3] = charge state: 3, modification: HexNAc (ST)
[4] = charge state: 2, modification: Acetyl (K)
[5] = charge state: 2, modification: Biotin
[6] = charge state: 2, modification: Butyryl
[7] = charge state: 3, modification: Butyryl
[8] = charge state: 2, modification: Crotonyl
[9] = charge state: 3, modification: Crotonyl
[10] = charge state: 2, modification: Dimethyl (K)
[11] = charge state: 3, modification: Dimethyl (K)
[12] = charge state: 2, modification: Formyl
[13] = charge state: 2, modification: Glutarylation
[14] = charge state: 3, modification: Glutarylation
[15] = charge state: 3, modification: GlyGly (K)
[16] = charge state: 2, modification: Malonyl
[17] = charge state: 2, modification: Methyl (K)
[18] = charge state: 3, modification: Methyl (K)
[19] = charge state: 2, modification: Propionyl
[20] = charge state: 2, modification: Succinyl
[21] = charge state: 2, modification: Trimethyl (K)
[22] = charge state: 3, modification: Trimethyl (K)
[23] = charge state: 3, modification: Citrullination (R)
[24] = charge state: 3, modification: Methyl (R)
[25] = charge state: 3, modification: Acetyl (K)
[26] = charge state: 2, modification: GlyGly (K)
[27] = charge state: 3, modification: Malonyl
[28] = charge state: 3, modification: Succinyl
[29] = charge state: 3, modification: hydroxyisobutyryl
[30] = charge state: 2, modification: Nitro (Y)
[31] = charge state: 2, modification: Phospho (Y)

TLQKQSVVYGGK [_TLQK(hydroxyisobutyryl)QSVVYGGK_]
collision cross section [1]: 398.93 ± 0.3 Å²

TLTPASSPVSSPSK [_TLTPASSPVSSPS(HexNAc (ST))K_]
collision cross section [2]: 404.79 Å²

TLTPASSPVSSPSKHGDR [_TLTPASSPVSSPS(HexNAc (ST))KHGDR_]
collision cross section [3]: 519.55 ± 0.18 Å²

TPLTHALPGLSEQEGQK [_T(HexNAc (ST))PLTHALPGLSEQEGQK_]
collision cross section [3]: 513.42 ± 0.96 Å²

TPNLYIYSKK [_TPNLYIYSK(Acetyl (K))K_]
collision cross section [4]: 385.54 ± 0.92 Å²

TPNLYIYSKK [_TPNLYIYSK(Biotin)K_]
collision cross section [5]: 409.6 Å²

TPNLYIYSKK [_TPNLYIYSK(Butyryl)K_]
collision cross section [6]: 388.09 ± 0.85 Å²
collision cross section [7]: 439.93 Å²

TPNLYIYSKK [_TPNLYIYSK(Crotonyl)K_]
collision cross section [8]: 385.36 Å²
collision cross section [9]: 432.18 Å²

TPNLYIYSKK [_TPNLYIYSK(Dimethyl (K))K_]
collision cross section [10]: 376.02 ± 0.46 Å²
collision cross section [11]: 432.06 ± 2.8 Å²

TPNLYIYSKK [_TPNLYIYSK(Formyl)K_]
collision cross section [12]: 377.67 ± 0.9 Å²

TPNLYIYSKK [_TPNLYIYSK(Gluratylation)K_]
collision cross section [13]: 398.57 ± 0.6 Å²
collision cross section [14]: 451.21 ± 1.7 Å²

TPNLYIYSKK [_TPNLYIYSK(GlyGly (K))K_]
collision cross section [15]: 446.34 ± 1.1 Å²

TPNLYIYSKK [_TPNLYIYSK(Malonyl)K_]
collision cross section [16]: 383.2 ± 0.78 Å²

TPNLYIYSKK [_TPNLYIYSK(Methyl (K))K_]
collision cross section [17]: 377.12 ± 0.28 Å²
collision cross section [18]: 428.93 ± 5.2 Å²

TPNLYIYSKK [_TPNLYIYSK(Propionyl)K_]
collision cross section [19]: 384.03 Å²

TPNLYIYSKK [_TPNLYIYSK(Succinyl)K_]
collision cross section [20]: 387.96 ± 0.52 Å²

TPNLYIYSKK [_TPNLYIYSK(Trimethyl (K))K_]
collision cross section [21]: 381.37 ± 0.61 Å²
collision cross section [22]: 442.31 Å²

TPNLYIYSKK [_TPNLYIYSK(hydroxyisobutyryl)K_]
collision cross section [1]: 388.68 ± 3 Å²

TPSSFRQPFTPTSR [_TPSSFR(Citrullination (R))QPFTPTSR_]
collision cross section [23]: 499.72 Å²

TPSSFRQPFTPTSR [_TPSSFR(Methyl (R))QPFTPTSR_]
collision cross section [24]: 481.78 ± 1.9 Å²

TQAEGQGQGRGLGLVSAVR [_TQAEGQGQGR(Citrullination (R))GLGLVSAVR_]
collision cross section [23]: 549.33 ± 0.79 Å²

TQAEGQGQGRGLGLVSAVR [_TQAEGQGQGR(Methyl (R))GLGLVSAVR_]
collision cross section [24]: 510.91 ± 2 Å²

TQAYQDQKPGTSGLR [_TQAYQDQK(Acetyl (K))PGTSGLR_]
collision cross section [4]: 429.11 ± 1.6 Å²
collision cross section [25]: 480.53 ± 6.7 Å²

TQAYQDQKPGTSGLR [_TQAYQDQK(Biotin)PGTSGLR_]
collision cross section [5]: 446.01 ± 0.23 Å²
collision cross section (charge state: 3, modification: Biotin): 500.74 ± 0.34 Å²

TQAYQDQKPGTSGLR [_TQAYQDQK(Butyryl)PGTSGLR_]
collision cross section [6]: 427.73 ± 0.77 Å²
collision cross section [7]: 479.17 ± 3.5 Å²

TQAYQDQKPGTSGLR [_TQAYQDQK(Crotonyl)PGTSGLR_]
collision cross section [8]: 430.35 ± 3.2 Å²
collision cross section [9]: 480.34 ± 2.8 Å²

TQAYQDQKPGTSGLR [_TQAYQDQK(Dimethyl (K))PGTSGLR_]
collision cross section [11]: 464.17 ± 1.6 Å²

TQAYQDQKPGTSGLR [_TQAYQDQK(Formyl)PGTSGLR_]
collision cross section [12]: 427.08 ± 0.79 Å²

TQAYQDQKPGTSGLR [_TQAYQDQK(Gluratylation)PGTSGLR_]
collision cross section [13]: 436.36 ± 1.1 Å²
collision cross section [14]: 483.65 ± 1 Å²

TQAYQDQKPGTSGLR [_TQAYQDQK(GlyGly (K))PGTSGLR_]
collision cross section [26]: 432.62 ± 1.4 Å²
collision cross section [15]: 500.32 ± 0.35 Å²

TQAYQDQKPGTSGLR [_TQAYQDQK(Malonyl)PGTSGLR_]
collision cross section [16]: 430.62 ± 0.59 Å²
collision cross section [27]: 484.2 Å²

TQAYQDQKPGTSGLR [_TQAYQDQK(Methyl (K))PGTSGLR_]
collision cross section [17]: 422.44 Å²
collision cross section [18]: 472.98 ± 2.7 Å²

TQAYQDQKPGTSGLR [_TQAYQDQK(Propionyl)PGTSGLR_]
collision cross section [19]: 428.95 ± 1.4 Å²

TQAYQDQKPGTSGLR [_TQAYQDQK(Succinyl)PGTSGLR_]
collision cross section [20]: 434.09 ± 1.1 Å²
collision cross section [28]: 483.43 ± 3.9 Å²

TQAYQDQKPGTSGLR [_TQAYQDQK(Trimethyl (K))PGTSGLR_]
collision cross section [22]: 476 ± 1.5 Å²

TQAYQDQKPGTSGLR [_TQAYQDQK(hydroxyisobutyryl)PGTSGLR_]
collision cross section [1]: 431.22 ± 0.52 Å²
collision cross section [29]: 484.99 ± 2.8 Å²

TQDQISNIKYHEEFEK [_TQDQISNIK(Acetyl (K))YHEEFEK_]
collision cross section [4]: 481.39 Å²
collision cross section [25]: 555.65 ± 0.58 Å²

TQDQISNIKYHEEFEK [_TQDQISNIK(Butyryl)YHEEFEK_]
collision cross section [7]: 559.77 ± 1.1 Å²

TQDQISNIKYHEEFEK [_TQDQISNIK(Crotonyl)YHEEFEK_]
collision cross section [9]: 560.13 Å²

TQDQISNIKYHEEFEK [_TQDQISNIK(Dimethyl (K))YHEEFEK_]
collision cross section [11]: 542.8 ± 0.41 Å²

TQDQISNIKYHEEFEK [_TQDQISNIK(Formyl)YHEEFEK_]
collision cross section (charge state: 3, modification: Formyl): 551.65 ± 1.7 Å²

TQDQISNIKYHEEFEK [_TQDQISNIK(Gluratylation)YHEEFEK_]
collision cross section [14]: 554.46 ± 0.14 Å²

TQDQISNIKYHEEFEK [_TQDQISNIK(GlyGly (K))YHEEFEK_]
collision cross section [15]: 559.05 ± 0.57 Å²

TQDQISNIKYHEEFEK [_TQDQISNIK(Malonyl)YHEEFEK_]
collision cross section [27]: 548.96 ± 0.016 Å²

TQDQISNIKYHEEFEK [_TQDQISNIK(Methyl (K))YHEEFEK_]
collision cross section [18]: 547.22 ± 0.37 Å²

TQDQISNIKYHEEFEK [_TQDQISNIK(Succinyl)YHEEFEK_]
collision cross section [28]: 549.89 ± 1.1 Å²

TQDQISNIKYHEEFEK [_TQDQISNIK(Trimethyl (K))YHEEFEK_]
collision cross section [22]: 544.72 ± 0.9 Å²

TQDQISNIKYHEEFEK [_TQDQISNIK(hydroxyisobutyryl)YHEEFEK_]
collision cross section [1]: 492.05 Å²
collision cross section [29]: 557.98 ± 1.2 Å²

TQSFSLQER [_T(HexNAc (ST))QSFSLQER_]
collision cross section [2]: 373.04 ± 0.83 Å²

TSAVSSQANSQPPVQVSVK [_T(HexNAc (ST))SAVSSQANSQPPVQVSVK_]
collision cross section [3]: 513.92 Å²

TSAVSSQANSQPPVQVSVK [_TSAVSSQANSQPPVQVS(HexNAc (ST))VK_]
collision cross section [2]: 471.02 Å²

TSAYGPPTR [_TSAY(Nitro (Y))GPPTR_]
collision cross section [30]: 326.25 ± 1.1 Å²

TSAYGPPTR [_TSAY(Phospho (Y))GPPTR_]
collision cross section [31]: 336.75 ± 0.067 Å²

TSSEASVSSSVAK [_T(HexNAc (ST))SSEASVSSSVAK_]
collision cross section [2]: 394.41 ± 0.76 Å²

TSYAQHQQVR [_TSY(Nitro (Y))AQHQQVR_]
collision cross section [30]: 366.98 ± 0.94 Å²
collision cross section (charge state: 3, modification: Nitro (Y)): 458.71 ± 1.2 Å²

TSYAQHQQVR [_TSY(Phospho (Y))AQHQQVR_]
collision cross section [31]: 370.43 ± 0.064 Å²
collision cross section (charge state: 3, modification: Phospho (Y)): 475.13 ± 0.98 Å²

TTEETSKPK [_TTEETSK(Acetyl (K))PK_]
collision cross section [4]: 334.91 ± 0.21 Å²

TTEETSKPK [_TTEETSK(Biotin)PK_]
collision cross section [5]: 372.34 Å²

TTEETSKPK [_TTEETSK(Butyryl)PK_]
collision cross section [6]: 338.9 ± 1.2 Å²

TTEETSKPK [_TTEETSK(Crotonyl)PK_]
collision cross section [8]: 346.33 ± 11 Å²

TTEETSKPK [_TTEETSK(Dimethyl (K))PK_]
collision cross section [10]: 338.18 ± 1.5 Å²
collision cross section [11]: 409.31 Å²

TTEETSKPK [_TTEETSK(Formyl)PK_]
collision cross section [12]: 332.42 ± 4.9 Å²

TTEETSKPK [_TTEETSK(Gluratylation)PK_]
collision cross section [13]: 352.76 ± 0.56 Å²

TTEETSKPK [_TTEETSK(GlyGly (K))PK_]
collision cross section [26]: 355.85 ± 0.24 Å²
collision cross section [15]: 431.05 ± 2.7 Å²

TTEETSKPK [_TTEETSK(Malonyl)PK_]
collision cross section [16]: 336.7 ± 0.59 Å²

TTEETSKPK [_TTEETSK(Methyl (K))PK_]
collision cross section [17]: 342.29 ± 0.79 Å²
collision cross section [18]: 431.66 Å²

TTEETSKPK [_TTEETSK(Propionyl)PK_]
collision cross section [19]: 342.02 ± 0.39 Å²

TTEETSKPK [_TTEETSK(Succinyl)PK_]
collision cross section [20]: 347.17 ± 0.86 Å²

TTEETSKPK [_TTEETSK(Trimethyl (K))PK_]
collision cross section [21]: 342 ± 0.055 Å²

TTEETSKPK [_TTEETSK(hydroxyisobutyryl)PK_]
collision cross section [1]: 347.15 ± 3.9 Å²

TTGFYSGFSEVAEKR [_TTGFYSGFSEVAEK(Acetyl (K))R_]
collision cross section [4]: 434.33 ± 1.7 Å²
collision cross section [25]: 508.12 ± 0.12 Å²

TTGFYSGFSEVAEKR [_TTGFYSGFSEVAEK(Butyryl)R_]
collision cross section [6]: 442.26 ± 0.29 Å²
